± gives the standard error. Fewer inactive variants are shown than the library holds.
B1: glmS ribozyme (parent)
chain: AUAAAAGCGCCAGAACUACAGAAAUGUAGUUGACGAGGAGGAGGUUUAUCGAAUUUUCGGCGGAUGCCUCCAAA

Experiments:
Settings in all cases: with glucosamine-6-phosphate
glucosamine-6-phosphate [1] = variants of: B1; test: self-cleavage kobs at 40 uM GlcN6P; higher = faster cleavage; RNA array
Procedure, shortened: (§1)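 Barcoded ribozyme variants on sequenced MiSeq chips were transcribed in situ by E. coli RNA polymerase and followed at 37 °C through a hybridised Cy3 probe. Glucosamine-6-phosphate at 40 μM to 10 mM in HEPES/KCl/Mg(OAc)2 buffer was flowed in, and tiles were imaged over ~14 h. Signals were normalised to baseline and to non-cleaving reference variants, and per-tile medians were fit to one- or two-exponential decays to give kobs. Weighted Michaelis–Menten fits across concentrations gave kcat and KM.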

glucosamine-6-phosphate [2] = variants of: B1; test: self-cleavage kobs at 160 uM GlcN6P; higher = faster cleavage; RNA array
Procedure, shortened: as §1

glucosamine-6-phosphate [3] = variants of: B1; test: self-cleavage kobs at 640 uM GlcN6P; higher = faster cleavage; RNA array
Procedure, shortened: as §1

glucosamine-6-phosphate [4] = variants of: B1; test: self-cleavage kobs at 10000 uM GlcN6P; higher = faster cleavage; RNA array
Procedure, shortened: as §1

glucosamine-6-phosphate [5] = variants of: B1; test: self-cleavage kobs at 2500 uM GlcN6P; higher = faster cleavage; RNA array
Procedure, shortened: as §1

| Variant | self-cleavage kobs at 40 uM GlcN6P (glucosamine-6-phosphate [1]) | self-cleavage kobs at 160 uM GlcN6P (glucosamine-6-phosphate [2]) | self-cleavage kobs at 640 uM GlcN6P (glucosamine-6-phosphate [3]) | self-cleavage kobs at 10000 uM GlcN6P (glucosamine-6-phosphate [4]) | self-cleavage kobs at 2500 uM GlcN6P (glucosamine-6-phosphate [5]) |
| --- | --- | --- | --- | --- | --- |
| U30C C50A A53G U69C C70G | 5.5e-05 ± 1.9e-05 s⁻¹ | – | – | – | – |
| U30C G44A | < 1e-05 s⁻¹ | < 1e-05 s⁻¹ | < 1e-05 s⁻¹ | < 1e-05 s⁻¹ | – |
| A33C G44C U57A A64U | < 1e-05 s⁻¹ | < 1e-05 s⁻¹ | < 1e-05 s⁻¹ | < 1e-05 s⁻¹ | < 1e-05 s⁻¹ |
| A33C G43A U47G | < 1e-05 s⁻¹ | < 1e-05 s⁻¹ | < 1e-05 s⁻¹ | – | < 1e-05 s⁻¹ |
| U30A G41A G60A C70U | < 1e-05 s⁻¹ | – | – | – | – |
| G32A U47G U57G | < 1e-05 s⁻¹ | – | – | – | – |
| U31C G38C A39C | < 1e-05 s⁻¹ | – | – | – | < 1e-05 s⁻¹ |
| G32A G44U | < 1e-05 s⁻¹ | – | < 1e-05 s⁻¹ | – | – |
| U31G G43C | < 1e-05 s⁻¹ | < 1e-05 s⁻¹ | < 1e-05 s⁻¹ | – | < 1e-05 s⁻¹ |
| U30A U56A | 9.28e-05 ± 1.4e-05 s⁻¹ | – | – | 0.00496 ± 0.00075 s⁻¹ | – |
| G32C G35A A48U A52U U54C C67U | < 1e-05 s⁻¹ | < 1e-05 s⁻¹ | < 1e-05 s⁻¹ | – | – |
| U30C G43U C70A | < 1e-05 s⁻¹ | – | – | – | – |
| G32U C34G | < 1e-05 s⁻¹ | < 1e-05 s⁻¹ | < 1e-05 s⁻¹ | < 1e-05 s⁻¹ | – |
| G32C G66U | < 1e-05 s⁻¹ | < 1e-05 s⁻¹ | – | – | – |
| G29U A33U G38C G40A | < 1e-05 s⁻¹ | – | – | – | – |
| G29U G44A | < 1e-05 s⁻¹ | < 1e-05 s⁻¹ | – | 3.45e-05 ± 9.6e-06 s⁻¹ | – |
| G29C U49A | < 1e-05 s⁻¹ | – | – | < 1e-05 s⁻¹ | – |
| U31A U49G C71U | < 1e-05 s⁻¹ | – | – | – | – |
| G32U A36G G41C A52U C67A | < 1e-05 s⁻¹ | – | – | – | – |
| A33C A42U C61A | < 1e-05 s⁻¹ | – | – | – | – |
| U31C G32A G60U | < 1e-05 s⁻¹ | – | – | < 1e-05 s⁻¹ | < 1e-05 s⁻¹ |
| G32A A48C | < 1e-05 s⁻¹ | < 1e-05 s⁻¹ | – | – | – |
| U30C G35U G41A U47A U57A C61G G63C C70A | < 1e-05 s⁻¹ | – | – | < 1e-05 s⁻¹ | – |
| U30G A53G | 0.000307 ± 5.3e-05 s⁻¹ | 0.00064 ± 0.00013 s⁻¹ | 0.00172 ± 0.0004 s⁻¹ | 0.0151 ± 0.0037 s⁻¹ | 0.00534 ± 0.00076 s⁻¹ |
| G32A G37C A42U | < 1e-05 s⁻¹ | – | – | – | – |
| U30A C50G U54A U69G | 5.79e-05 ± 1.6e-05 s⁻¹ | – | – | – | – |
| G32A G63U | < 1e-05 s⁻¹ | < 1e-05 s⁻¹ | – | < 1e-05 s⁻¹ | < 1e-05 s⁻¹ |

| Variant | self-cleavage kobs at 40 uM GlcN6P (glucosamine-6-phosphate [1]) | self-cleavage kobs at 160 uM GlcN6P (glucosamine-6-phosphate [2]) | self-cleavage kobs at 640 uM GlcN6P (glucosamine-6-phosphate [3]) | self-cleavage kobs at 10000 uM GlcN6P (glucosamine-6-phosphate [4]) | self-cleavage kobs at 2500 uM GlcN6P (glucosamine-6-phosphate [5]) |
| --- | --- | --- | --- | --- | --- |
| A33C G35C | < 1e-05 s⁻¹ | < 1e-05 s⁻¹ | < 1e-05 s⁻¹ | < 1e-05 s⁻¹ | – |
| U31G A48U | < 1e-05 s⁻¹ | – | – | 5.93e-05 ± 2.1e-05 s⁻¹ | 8.46e-05 ± 1.6e-05 s⁻¹ |
| U30C U45A U47C C50U G60U C68U | < 1e-05 s⁻¹ | – | – | – | – |
| U30A U31C C50G U56G C61G | 3.8e-05 ± 1.5e-05 s⁻¹ | – | – | – | – |
| G29U U47A U57G | < 1e-05 s⁻¹ | – | – | – | – |
| G32U A36C C68A | < 1e-05 s⁻¹ | – | – | < 1e-05 s⁻¹ | – |
| A33C C50G C71U | 0.000772 ± 0.00027 s⁻¹ | – | 0.000204 ± 5.8e-05 s⁻¹ | 5.96e-05 ± 2.9e-05 s⁻¹ | 0.000589 ± 0.00017 s⁻¹ |
| U31G G43U U54A | < 1e-05 s⁻¹ | – | – | – | – |
| G32C G51A G66A | < 1e-05 s⁻¹ | – | < 1e-05 s⁻¹ | < 1e-05 s⁻¹ | < 1e-05 s⁻¹ |
| U30G U56A G66A | 5.14e-05 ± 1.7e-05 s⁻¹ | – | – | 0.00252 ± 0.00061 s⁻¹ | – |
| U30G G38U A39U G66A | < 1e-05 s⁻¹ | – | – | < 1e-05 s⁻¹ | – |
| G29U U45A C61A | < 1e-05 s⁻¹ | – | – | – | – |
| U31G A64U | < 1e-05 s⁻¹ | < 1e-05 s⁻¹ | < 1e-05 s⁻¹ | – | < 1e-05 s⁻¹ |
| U30A G44U | < 1e-05 s⁻¹ | – | – | – | – |
| U30C G35A C50G C61U A64G | 0.000165 ± 5.1e-05 s⁻¹ | – | – | – | – |
| G32A U54G G59A | < 1e-05 s⁻¹ | – | – | – | – |
| U31G A33G U56C | < 1e-05 s⁻¹ | < 1e-05 s⁻¹ | < 1e-05 s⁻¹ | – | < 1e-05 s⁻¹ |
| G29U U31C C50G | 6.96e-05 ± 3.2e-05 s⁻¹ | – | – | 5.39e-05 ± 2.3e-05 s⁻¹ | – |
| G32A U55G | 4.93e-05 ± 1.7e-05 s⁻¹ | – | 0.000327 ± 5.7e-05 s⁻¹ | 0.00326 ± 0.00054 s⁻¹ | 0.000627 ± 0.00014 s⁻¹ |
| G29U U56G G62U | < 1e-05 s⁻¹ | – | – | – | – |
| G32C C34A | < 1e-05 s⁻¹ | < 1e-05 s⁻¹ | < 1e-05 s⁻¹ | < 1e-05 s⁻¹ | – |
| A33G C50U C67A | < 1e-05 s⁻¹ | – | – | – | – |
| U31G C34U A42G | < 1e-05 s⁻¹ | < 1e-05 s⁻¹ | < 1e-05 s⁻¹ | < 1e-05 s⁻¹ | < 1e-05 s⁻¹ |
| G29U G35U C70U | < 1e-05 s⁻¹ | – | – | – | < 1e-05 s⁻¹ |
| A33C A52U | < 1e-05 s⁻¹ | – | < 1e-05 s⁻¹ | < 1e-05 s⁻¹ | – |
| U31G G44A | < 1e-05 s⁻¹ | – | – | 9.7e-05 ± 2.6e-05 s⁻¹ | 5.95e-05 ± 2.1e-05 s⁻¹ |
| G29U G35A G40C A42G | < 1e-05 s⁻¹ | – | – | – | – |

Reference: the supplement of paper PMC7125110
